Target: Zn2+
Assay: Zincon assay
Details: purified Vif complex denatured and deproteinated; metal ions measured in supernatant; parent: est. 1.3; read off a plot

Substance | other: Zn2+:Protein Ratio
maedi–visna virus (MVV) Vif, WT, residues 1-230, N-terminal 6xHis tagged (from UniProt P69715) C135S | 0.09
maedi–visna virus (MVV) Vif, WT, residues 1-230, N-terminal 6xHis tagged (from UniProt P69715) C137S | 0.07
maedi–visna virus (MVV) Vif, WT, residues 1-230, N-terminal 6xHis tagged (from UniProt P69715) C157S | 0.2
maedi–visna virus (MVV) Vif, WT, residues 1-230, N-terminal 6xHis tagged (from UniProt P69715) C160S | 0.17
maedi–visna virus (MVV) Vif, WT, residues 1-230, N-terminal 6xHis tagged (from UniProt P69715) C207S | 0.93
maedi–visna virus (MVV) Vif, WT, residues 1-230, N-terminal 6xHis tagged (from UniProt P69715) C222S | 0.77
maedi–visna virus (MVV) Vif, WT, residues 1-230, N-terminal 6xHis tagged (from UniProt P69715) H7N | 1.2
maedi–visna virus (MVV) Vif, WT, residues 1-230, N-terminal 6xHis tagged (from UniProt P69715) H129N | 0.92
maedi–visna virus (MVV) Vif, WT, residues 1-230, N-terminal 6xHis tagged (from UniProt P69715) H152N | 0.97
maedi–visna virus (MVV) Vif, WT, residues 1-230, N-terminal 6xHis tagged (from UniProt P69715) H181N | 1.2
maedi–visna virus (MVV) Vif, WT, residues 1-230, N-terminal 6xHis tagged (from UniProt P69715) H186N | 1.1

— paper PMC7949081
